# From paper PMC3873559
# Target: human factor Xa (plasma-derived) (human)
# Test: kinetic titration of prothrombinase (thrombin generation read with a chromogenic substrate); apparent KD; limiting fXa (15 pM), fV/fVa species varied (30 pM to 10 nM; 0 to 15 nM by the legend of Fig. 4), PCPS vesicles 20 μM, DAPA 3 μM, prothrombin 1.4 μM, Spectrozyme-TH 0.4 mM; fitted to a one binding site model
# Sequence of human factor Xa (plasma-derived) (human) (P00742 whole entry): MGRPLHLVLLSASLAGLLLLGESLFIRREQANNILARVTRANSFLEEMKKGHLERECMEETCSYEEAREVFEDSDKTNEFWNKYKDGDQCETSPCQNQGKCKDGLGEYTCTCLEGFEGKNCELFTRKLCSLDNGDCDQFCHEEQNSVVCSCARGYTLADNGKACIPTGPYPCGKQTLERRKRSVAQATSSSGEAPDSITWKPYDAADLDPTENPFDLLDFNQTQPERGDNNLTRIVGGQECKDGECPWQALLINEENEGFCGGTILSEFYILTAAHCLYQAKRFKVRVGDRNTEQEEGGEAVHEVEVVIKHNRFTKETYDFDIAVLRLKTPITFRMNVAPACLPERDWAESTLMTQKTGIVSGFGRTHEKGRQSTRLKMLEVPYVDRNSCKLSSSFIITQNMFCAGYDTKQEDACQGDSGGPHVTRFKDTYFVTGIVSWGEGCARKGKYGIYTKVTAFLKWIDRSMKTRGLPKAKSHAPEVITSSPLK
row,Kd [nM],Substance
1,0.92,recombinant human fV with Arg1018 and Arg1545 mutated to glutamine following incubation with thrombin (fVa^RQQ) (from UniProt P12259 29-737; P12259 738-2224) (complex)
2,0.51,fVa purified from pooled fresh frozen normal plasma (fVa^plasma) (from UniProt P12259 29-737; P12259 1574-2224) (complex)
3,0.28,wild type recombinant human fV incubated with thrombin (fVa^WT) (from UniProt P12259 29-737; P12259 1574-2224) (complex)
4,0.73,recombinant human fV with region 1000–1008 deleted and the thrombin activation cleavage sites (Arg709/Arg1018/Arg1545) mutated to glutamine (fV^ΔB9/Q3) (from UniProt P12259 29-2224) (natural protein)
